According to PMC4167861, “Mycobacterium tuberculosis Rho Is an NTPase with Distinct Kinetic Properties and a Novel RNA-Binding Subdomain” (PLoS ONE, 2014):

Biological target: the molecule itself
Test: cross-linking; 2 ug MtbRho, 0.05% glutaraldehyde, 5 and 10 min at 37 C in T-buffer (KCl instead of K-glutamate), no RNA or ATP; 3.5-8% gradient SDS-PAGE; cross-linked RNAP as marker of ~400 kDa

B1: Mycobacterium tuberculosis Rho (enzyme)
chain: MTDTDLITAGESTDGKPSDAAATDPPDLNADEPAGSLATMVLPELRALANRAGVKGTSGMRKNELIAAIEEIRRQANGAPAVDRSAQEHDKGDRPPSSEAPATQGEQTPTEQIDSQSQQVRPERRSATREAGPSGSGERAGTAADDTDNRQGGQQDAKTEERGTDAGGDQGGDQQASGGQQARGDEDGEARQGRRGRRFRDRRRRGERSGDGAEAELREDDVVQPVAGILDVLDNYAFVRTSGYLPGPHDVYVSMNMVRKNGMRRGDAVTGAVRVPKEGEQPNQRQKFNPLVRLDSINGGSVEDAKKRPEFGKLTPLYPNQRLRLETSTERLTTRVIDLIMPIGKGQRALIVSPPKAGKTTILQDIANAITRNNPECHLMVVLVDERPEEVTDMQRSVKGEVIASTFDRPPSDHTSVAELAIERAKRLVEQGKDVVVLLDSITRLGRAYNNASPASGRILSGGVDSTALYPPKRFLGAARNIEEGGSLTIIATAMVETGSTGDTVIFEEFKGTGNAELKLDRKIAERRVFPAVDVNPSGTRKDELLLSPDEFAIVHKLRRVLSGLDSHQAIDLLMSQLRKTKNNYEFLVQVSKTTPGSMDSD
notes: also called MtbRho; recombinant MtbRho
stoichiometry N: 6
